Publication doi:10.1101/2021.03.15.435402, “GTP and lipids control self-assembly and functional promiscuity of Dynamin2 molecular machinery” (bioRxiv, 2021)

Tests used:
[1] = target: the molecule itself; test: single-molecule fluorescence microscopy (oligomer size from mEGFP intensity); Dyn2-mEGFP (10-20 nM) premixed with 0.2 mM LUVs (Rh-DOPE) added to nanotubes, no GTP; mEGFP fluorescence colocalized with LUVs tethered to the nanotube
[2] = target: the molecule itself; test: single-molecule fluorescence microscopy (oligomer size from mEGFP intensity); Dyn2-mEGFP 20 nM pulse-perfused on membrane nanotubes (40 mol% PE, 0.1 mol% Cy5-PE), protein washed off from the bulk, no nucleotide (apo); total fluorescence divided by the mean intensity of a single mEGFP

B1: Dyn2 labeled with monomeric GFP (Dyn2-mEGFP) (natural protein, UniProt P50570 1-870, looked up)
chain: MGNRGMEELIPLVNKLQDAFSSIGQSCHLDLPQIAVVGGQSAGKSSVLENFVGRDFLPRGSGIVTRRPLILQLIFSKTEHAEFLHCKSKKFTDFDEVRQEIEAETDRVTGTNKGISPVPINLRVYSPHVLNLTLIDLPGITKVPVGDQPPDIEYQIKDMILQFISRESSLILAVTPANMDLANSDALKLAKEVDPQGLRTIGVITKLDLMDEGTDARDVLENKLLPLRRGYIGVVNRSQKDIEGKKDIRAALAAERKFFLSHPAYRHMADRMGTPHLQKTLNQQLTNHIRESLPALRSKLQSQLLSLEKEVEEYKNFRPDDPTRKTKALLQMVQQFGVDFEKRIEGSGDQVDTLELSGGARINRIFHERFPFELVKMEFDEKDLRREISYAIKNIHGVRTGLFTPDLAFEAIVKKQVVKLKEPCLKCVDLVIQELINTVRQCTSKLSSYPRLREETERIVTTYIREREGRTKDQILLLIDIEQSYINTNHEDFIGFANAQQRSTQLNKKRAIPNQGEILVIRRGWLTINNISLMKGGSKEYWFVLTAESLSWYKDEEEKEKKYMLPLDNLKIRDVEKGFMSNKHVFAIFNTEQRNVYKDLRQIELACDSQEDVDSWKASFLRAGVYPEKDQAENEDGAQENTFSMDPQLERQVETIRNLVDSYVAIINKSIRDLMPKTIMHLMINNTKAFIHHELLAYLYSSADQSSLMEESADQAQRRDDMLRMYHALKEALNIIGDISTSTVSTPVPPPVDDTWLQSASSHSPTPQRRPVSSIHPPGRPPAVRGPTPGPPLIPVPVGAAASFSAPPIPSRPGPQSVFANSDLFPAPPQIPSRPVRIPPGIPPGVPSRRPPAAPSRPTIIRPAEPSLLD
notes: Dynamin 2 (Dyn2) fused to monomeric EGFP; source: purified
stoichiometry N [1]: 38 ± 16 molecules | stoichiometry N [2]: 12 ± 6 mEGFP units
